The results in this text go back to article PMC4915132, “Structural insights of ZIP4 extracellular domain critical for optimal zinc transport” (Nature Communications, 2016).

Series [1] concerns the target extracellular domain of ZIP14 from Pteropus alecto (Pteropus alecto). Kind of series: SEC; purified protein on a size exclusion column; elution volume compared with standard proteins eluted on the same column. For orientation: In gel filtration, larger molecules generally elute earlier.
The target in series [2] is pZIP14-ECD C147S mutant (Pteropus alecto). The series is described as above.
Series [3] deals with the molecule itself. Kind of series: cross-linking; disulfide through an engineered cysteine; full-length hZIP4-HA transiently expressed in HEK293T cells; 4-20% gradient SDS-PAGE with or without 5% β-mercaptoethanol, western blot with anti-HA.
Series [4] concerns the molecule itself. The experiment in a line: SEC; purified protein on a size exclusion column; elution volume compared with standard proteins eluted on the same column.

As for “extracellular domain of ZIP14 from Pteropus alecto (from UniProt A5D7L5 61-174) (domain or fragment)”, the stoichiometry N – broadly, a count of units in the complex or per binding partner – in series [1] came to 2. “pZIP14-ECD C147S mutant (from UniProt A5D7L5 61-174) (domain or fragment)”: the stoichiometry N in series [2] stood at 2.

B1: full-length human ZIP4 S297C mutant with C-terminal HA tag (natural protein, UniProt Q6P5W5-1 23-647, looked up)
chain: SPPAGLLSLLTSGQGALDQEALGGLLNTLADRVHCANGPCGKCLSVEDALGLGEPEGSGLPPGPVLEARYVARLSAAAVLYLSNPEGTCEDARAGLWASHADHLLALLESPKALTPGLSWLLQRMQARAAGQTPKMACVDIPQLLEEAVGAGAPGSAGGVLAALLDHVRSGSCFHALPSPQYFVDFVFQQHSSEVPMTLAELSALMQRLGVGREAHSDHSHRHRGASSRDPVPLISSSNSSSVWDTVCLSARDVMAAYGLSEQAGVTPEAWAQLCPALLQQQLSGACTSQSRPPVQDQLSQSERYLYGSLATLLICLCAVFGLLLLTCTGCRGVTHYILQTFLSLAVGAVTGDAVLHLTPKVLGLHTHSEEGLSPQPTWRLLAMLAGLYAFFLFENLFNLLLPRDPEDLEDGPCGHSSHSHGGHSHGVSLQLAPSELRQPKPPHEGSRADLVAEESPELLNPEPRRLSPELRLLPYMITLGDAVHNFADGLAVGAAFASSWKTGLATSLAVFCHELPHELGDFAALLHAGLSVRQALLLNLASALTAFAGLYVALAVGVSEESEAWILAVATGLFLYVALCDMLPAMLKVRDPRPWLLFLLHNVGLLGGWTVLLLLSLYEDDITF
notes: Human zinc transporter ZIP4 (SLC39A4), GenBank BC062625, with S297C (S297 is equivalent to S293 in pZIP4); Intermolecular disulfide C297-C297* in the dimer; also called S297C mutant ZIP4; source: HEK293T, transiently transfected, in lysate; not shown: HA, C-terminal, kept
Regarding B1, the “stoichiometry N” value in series [3] turned out to be 2.

B2: ZIP4 extracellular domain from Pteropus alecto (black fruit bat) (domain or fragment, UniProt L5KLU7 36-322, looked up)
chain: SGQGALDRVALGGLLNTLAARVHCTSGPCGKCLSVDDLLALGRPEEPGHLARLSAAAALYLSDPEGTCEDIRAGRWASRADHLLALLEGPKALAPGLSRLLQRIQAQTTGQPSAGEACVDPPQLLREAGVAGAPGSPGPVLATLLEHVGRGSCFHTLPTPQYFVDFVFQQSHGNTPNISVAELAALMQRLGVGGVTETHSDHHHQEKRVNRQGPTPLTAPNSSSDTWDTVCLSARDVMAVYGLSEQTGVTPEAWAQLSPALLQQQLSGACSPQPSHPAQNQLSQAEK
notes: Zinc transporter ZIP4 (SLC39A4) of Pteropus alecto, GenBank ELK11751, residues 36-322 (extracellular domain: HRD 36-191 and PCD 192-322); A selenomethionine-substituted form was also crystallised for phasing; Four intramolecular disulfide bonds (C59-C64, C67-C103, C153-C188, C266-C305); also called pZIP4-ECD; ZIP4-ECD; source: E. coli Origami B(DE3) pLysS, purified (Ni-NTA, Mono-Q, SEC); not …
Turning to B2, the “stoichiometry N” value in series [4] was determined as 2.
